# Reference: the supplement of paper PMC12764529
# ± gives the half width of the 95% confidence interval.
# Tests used:
# [1] = folding stability dG unfold (combined trypsin and chymotrypsin); higher = more stable
# Outline: (§1)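 Only designs with AlphaFold2 dimer inter-PAE above 15 were retained; each was a mini-protein under 80 residues with no cysteine, in a PA-tagged cDNA display construct. After digestion with trypsin and chymotrypsin and sequencing, K50 was inferred by Bayesian fitting of counts, and unfolding free energy was derived per protease or combined against a sequence-predicted unfolded-state K50 and a shared folded-state K50.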
# [2] = folding stability dG unfold from chymotrypsin proteolysis; higher = more stable
# Outline: as §1
# [3] = folding stability dG unfold from trypsin proteolysis; higher = more stable
# Outline: as §1
Sequence,folding stability dG unfold [1] [kcal/mol],folding stability dG unfold [2] [kcal/mol],folding stability dG unfold [3] [kcal/mol]
SMEEEEEEPEPAPVVVITVEPGETVEQVRAAAREAAEKGMRIVITGLSEEEAKAIAEELGLDVEIEVVEPSA [r9_1207_TrROS_Hall],2.69 ± 0.78,1.47 ± 0.16,3.01 ± 0.33
SMEEIAKEIAEKAGVNWENVEFKVEEKEDPETGEKYLIAHVVIKLPNEKYIAVIDLRDKKILEIWKLEDISA [r9_1219_TrMRF],3.61 ± 0.11,3.73 ± 0.063,2.91 ± 0.11
SMEIDPGPGVIRLRFEAPLVDPEHPRLLTLRLEPVIEVSPDGTLRVREVRLVGFSPDGELLFERPFTLDLSA [r9_383_TrMRF],2.16 ± 0.066,2.28 ± 0.06,1.865 ± 0.017
SMEISFTDPAEAEALLAEVKAKLKAELPPNTVVPITVRDAAGNPTTHPITITPEPPEVVYFTETGGTVLLSA [r9_596_JUSTAS],1.76 ± 0.28,1.57 ± 0.051,1.94 ± 0.17
SMEIVFKGKNYYVPVKIDLDNPKITIETYPDKRNKVFKPLSKETAEKIAKAVEIEVAEKIAKAIAEGKPPSA [r9_368_TrMRF],-0.246 ± 0.54,-0.5 ± 0.66,0.0537 ± 0.39
SMEKVKAKPAGEVTFVFDNEDPSLTPEQQVELVEKELEKLPELKIYEVEAEVDLETGKVTIKVKLLVEEVSA [r9_1001_TrMRF],0.814 ± 0.22,1.26 ± 0.11,-0.41 ± 0.28
SMEMTPEERLLALLREARKKHPGKKIVLSVEEIEELLGVDLSAEEIAKLLKEELGIDEVEIVEEEEPEEESA [r9_738_TrROS_Hall],3.01 ± 0.069,3.375 ± 0.031,2.11 ± 0.056
SMEPGELRLRAKVPLRIVNPDGEEIADIEIEVRSIEELEEAIAEAARELAERLGRPDAPVVIDDIEVEDESA [r9_376_TrMRF],0.482 ± 0.23,0.643 ± 0.14,0.239 ± 0.19
SMGMTPEEYILELVREALAADPDAAVTIDHDDIVRNTPNPISKEEIEKLAKEKTGVEDLTVTETPPDVPPSA [r9_738_JUSTAS],0.265 ± 0.061,0.252 ± 0.054,0.18 ± 0.023
SMIKVGFNVTGLPEEAEAKAEELARELAEETGARVAGVELLEAVPHPDGGPETFNVLVTLEVPNPEAIEKSA [r9_302_TrMRF],1.72 ± 0.093,2.21 ± 0.051,0.542 ± 0.045
SMILDVPGEQLDEALAEIRAAVAAGAPPVTIRMKLSPEDLKKAKAAFEALGMTVTPLPEPGVWEFTVELRSA [r9_600_JUSTAS],3.27 ± 0.065,3.366 ± 0.017,3.08 ± 0.043
SMITIPYNIQTDPSQAEKLAEEIAKEVEEKYGLKVVGVELVEWVPAPDGSESSVKVEIKIEAPDPKNILLSA [r9_302_JUSTAS],0.705 ± 0.096,0.713 ± 0.089,0.614 ± 0.031
SMITSTTTTDPNSNTTTTTYTYPDTTYTVTRTLNPDNTVTVTVTATTPPGPTTPLSTVNLSPTDTLTLPVSA [r9_1172_JUSTAS],1.36 ± 0.054,1.26 ± 0.068,1.34 ± 0.031
SMIVRVEGDKTTITLTLTTTTTLTDPTNPSLTTTVSKTVPRTLTLDPNDPAALAALIAALPPGAVPTIVGSA [r9_476_JUSTAS],1.43 ± 0.095,1.75 ± 0.091,0.728 ± 0.04
